According to PMC11725853 (Proceedings of the National Academy of Sciences of the …, 2024):

What was measured:
[1] = molecular target: trypsin-activated PDE6 isolated from bovine rod outer segment membranes (bovine) (UniProt P11541); assay: inhibition of enzyme activity
[2] = molecular target: trypsin-activated PDE6 from mouse retina extracts (mouse (endogenous in retina)) (UniProt P27664); assay: inhibition of enzyme activity
[3] = molecular target: the molecule itself; assay: mass photometry

Chain of full-length Pγr (isolated protein used in PDE6 activity assays) (P18545 whole entry): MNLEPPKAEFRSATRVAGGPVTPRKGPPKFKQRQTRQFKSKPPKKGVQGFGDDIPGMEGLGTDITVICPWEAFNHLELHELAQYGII
Chain of synthetic peptide of the 25 C-terminal residues of Pγr, Pγr-63-87 (P18545 63-87): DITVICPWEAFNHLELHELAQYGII
Chain of full-length Pγc (isolated protein used in PDE6 activity assays) (Q13956 whole entry): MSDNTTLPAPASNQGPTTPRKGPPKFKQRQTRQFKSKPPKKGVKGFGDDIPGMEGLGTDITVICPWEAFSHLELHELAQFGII
Chain of synthetic peptide of the C-terminus of Pγc, Pγc-59-83 (Q13956 59-83): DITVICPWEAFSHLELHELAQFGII

Molecule	Ki [1] [nM]	Ki [2] [nM]	also measured
full-length Pγc (isolated protein used in PDE6 activity assays) (from UniProt Q13956 1-83) (natural protein)	0.0755	–	–
full-length Pγr (isolated protein used in PDE6 activity assays) (from UniProt P18545 1-87) (natural protein)	0.0294	–	–
human cone cGMP-phosphodiesterase PDE6C catalytic subunit (residues 2-830), catalytic homodimer of holoPDE6C (enzyme, UniProt P51160 2-830, looked up) GEINQVAVEKYLEENPQFAKEYFDRKLRVEVLGEIFKNSQVPVQSSMSFSELTQVEESALCLELLWTVQEEGGTPEQGVHRALQRLAHLLQADRCSMFLCRSRNGIPEVASRLLDVTPTSKFEDNLVGPDKEVVFPLDIGIVGWAAHTKKTHNVPDVKKNSHFSDFMDKQTGYVTKNLLATPIVVGKEVLAVIMAVNKVNASEFSKQDEEVFSKYLNFVSIILRLHHTSYMYNIESRRSQILMWSANKVFEELTDVERQFHKALYTVRSYLNCERYSIGLLDMTKEKEFYDEWPIKLGEVEPYKGPKTPDGREVNFYKIIDYILHGKEEIKVIPTPPADHWTLISGLPTYVAENGFICNMMNAPADEYFTFQKGPVDETGWVIKNVLSLPIVNKKEDIVGVATFYNRKDGKPFDEHDEYITETLTQFLGWSLLNTDTYDKMNKLENRKDIAQEMLMNQTKATPEEIKSILKFQEKLNVDVIDDCEEKQLVAILKEDLPDPRSAELYEFRFSDFPLTEHGLIKCGIRLFFEINVVEKFKVPVEVLTRWMYTVRKGYRAVTYHNWRHGFNVGQTMFTLLMTGRLKKYYTDLEAFAMLAAAFCHDIDHRGTNNLYQMKSTSPLARLHGSSILERHHLEYSKTLLQDESLNIFQNLNKRQFETVIHLFEVAIIATDLALYFKKRTMFQKIVDACEQMQTEEEAIKYVTVDPTKKEIIMAMMMTACDLSAITKPWEVQSQVALMVANEFWEQGDLERTVLQQQPIPMMDRNKRDELPKLQVGFIDFVCTFVYKEFSRFHKEITPMLSGLQNNRVEWKSLADEYDAKMKVIEEEA	–	–	stoichiometry N [3]: 2

More lines, main results first:

Ki [1] [nM]	Ki [2] [nM]	Molecule	also measured
–	2500	synthetic peptide of the 25 C-terminal residues of Pγr, Pγr-63-87 (from UniProt P18545 63-87)	–
–	8200	synthetic peptide of the C-terminus of Pγc, Pγc-59-83 (from UniProt Q13956 59-83)	–
